{"source": "paper PMC3828344", "system": "vesicular stomatitis virus particle (Vesicular stomatitis virus)", "assay": "electrochemical aptasensor (SWV)"}
{"sequence": "GCTAGCGAATTCCGTACGAAGGGCGAATTCCACATTGGGCTGCAGCCCGGGGGATCC [thiolated AG3 (aptasensor)]", "values": [{"measurement": "binding signal (% of current decrease)", "result": 9.1}]}
